From paper PMC8557468, “Evolution-Based Protein Engineering for Antifungal Peptide Improvement” (Molecular Biology and Evolution, 2021)
Positions of bridges follow the written chain, without caps; N, C: chain ends. No end group written: not given here.

Tests used:
[1] = system: mouse erythrocytes; assay: Hemolytic assay; type: cell-based; settings: 50 μM peptide, 37 °C, 15 min, absorbance 570 nm; n = 3
Description: Hemolysis of mouse erythrocytes by peptides was assayed according to the standard method ([Gao et al. 2009]). In brief, the cells were incubated with various concentrations of peptides (6.25, 12.5, 25, or 50 μM) at 37 °C for 15 min. Absorbance was measured at 570 nm with the SpectraMax i3x Multi-Mode microplate reader (Molecular Devices). The percentage of hemolysis was determined as (Apep−Ablank)/(Atot−Ablank)×100. Ablank and Apep were evaluated in the absence or presence of peptides and 100% hemolysis (Atot) was obtained in the presence of 1% Triton X-100. Meucin-18 ([Gao et al. 2009]) was used positive control.

[2] = n = 3
Description: To assess serum stability, peptides were incubated in fresh mouse serum for 0, 12, and 24 h at 37 °C, respectively. Residual activities were measured by inhibition zone assays against C. albicans B16. For thermal stability assay, E15K was incubated at 50 °C for 1–5 days, 80 °C or 100 °C for 5 min. CD analysis and inhibition zone assay were used to evaluate a potential impact of heating on the structure and function of the peptide.

DVKSGHYKGPCYHDKNCNGVCRDEGYKSGHCSRWGGACWCDT (disulfide 11-31, 17-38, 21-40) [E15K]
hemolysis on mouse erythrocytes [1]: no detectable hemolysis | serum stability (residual antifungal activity) ([2]; fresh mouse serum, 37 °C, 0, 12 and 24 h, residual activity by inhibition zone against C. albicans B16, 1.0 nmol): retained its complete antifungal activity | thermal stability (activity and structure after heating) ([2]; in water at 50 °C for 1–5 days or 80–100 °C for 5 min, CD spectra and inhibition zone assay): its activity and structure were not obviously changed
